The assay addresses T1, GST-MP (MONOPTEROS / AUXIN RESPONSE FACTOR5) (Arabidopsis thaliana, UniProt P93024 1-902).
T1 sequence (looked up): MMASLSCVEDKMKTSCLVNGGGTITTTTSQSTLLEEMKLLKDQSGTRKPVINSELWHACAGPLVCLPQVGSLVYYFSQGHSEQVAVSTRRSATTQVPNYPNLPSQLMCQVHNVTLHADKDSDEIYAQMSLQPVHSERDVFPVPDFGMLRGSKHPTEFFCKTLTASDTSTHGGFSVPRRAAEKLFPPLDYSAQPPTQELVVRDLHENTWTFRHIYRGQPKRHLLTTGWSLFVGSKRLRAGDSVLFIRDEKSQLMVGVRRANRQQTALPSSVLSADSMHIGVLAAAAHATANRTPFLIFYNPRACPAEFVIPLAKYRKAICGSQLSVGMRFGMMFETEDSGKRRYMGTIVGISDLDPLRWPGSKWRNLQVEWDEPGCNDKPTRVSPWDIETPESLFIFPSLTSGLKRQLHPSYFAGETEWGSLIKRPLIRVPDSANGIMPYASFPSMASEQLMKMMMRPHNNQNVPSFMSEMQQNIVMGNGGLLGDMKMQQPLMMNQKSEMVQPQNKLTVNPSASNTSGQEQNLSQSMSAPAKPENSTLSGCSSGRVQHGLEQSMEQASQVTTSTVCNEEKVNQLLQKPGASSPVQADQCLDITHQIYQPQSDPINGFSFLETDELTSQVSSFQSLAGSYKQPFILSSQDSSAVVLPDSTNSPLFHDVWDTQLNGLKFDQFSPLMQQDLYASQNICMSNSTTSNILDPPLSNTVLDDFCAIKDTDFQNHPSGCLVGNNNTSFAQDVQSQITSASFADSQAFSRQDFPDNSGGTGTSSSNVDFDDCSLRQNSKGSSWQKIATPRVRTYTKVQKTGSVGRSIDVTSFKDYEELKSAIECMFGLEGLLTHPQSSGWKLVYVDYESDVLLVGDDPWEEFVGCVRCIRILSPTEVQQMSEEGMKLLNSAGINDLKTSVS
In words: pull-down.

B1: 6xHis-MBP-DRN (residues 1 to 200, protein-protein interaction domain) (domain or fragment)
chain: not shown
Take B1: the binding result is reported as “binds”.

B2: 6xHis-MBP-DRNL (DORNROSCHEN-LIKE) (natural protein)
chain: not shown
For B2, the binding result is recorded as “binds”.

The values above are taken from paper PMC10334806 (Proceedings of the National Academy of Sciences of the …, 2023).
